Experimental data published in patent publication US20240293512A1 (HANMI PHARM, published 2024).
Bridge positions count the residues as written; N and C are the ends. Square brackets hold non-standard residues; d marks the D form. Ends that are not written are not given here. * marks the point of attachment. Acetyl(2-(4-imidazolyl)) = O=C(Cc1c[nH]cn1)*; Aib = CC(C)(N)C(=O)O

T1: human GIP receptor (human, UniProt P48546 22-466)
T1 sequence (looked up): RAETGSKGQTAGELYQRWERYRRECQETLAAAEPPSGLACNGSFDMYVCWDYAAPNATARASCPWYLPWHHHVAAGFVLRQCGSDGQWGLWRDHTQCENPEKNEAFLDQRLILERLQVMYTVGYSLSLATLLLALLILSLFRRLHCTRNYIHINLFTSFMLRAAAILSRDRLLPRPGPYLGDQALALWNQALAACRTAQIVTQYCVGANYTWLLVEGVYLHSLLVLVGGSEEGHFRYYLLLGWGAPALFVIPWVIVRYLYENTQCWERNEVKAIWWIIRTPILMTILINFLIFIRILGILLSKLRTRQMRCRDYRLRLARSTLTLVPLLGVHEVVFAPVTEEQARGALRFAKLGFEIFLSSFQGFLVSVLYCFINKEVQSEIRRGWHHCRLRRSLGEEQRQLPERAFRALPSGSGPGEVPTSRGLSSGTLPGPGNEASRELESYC


Each binder was assayed against human GCG receptor (human, UniProt P47871 26-477) (assay: cell-based or functional assay).
Sequence of human GCG receptor (P47871 26-477): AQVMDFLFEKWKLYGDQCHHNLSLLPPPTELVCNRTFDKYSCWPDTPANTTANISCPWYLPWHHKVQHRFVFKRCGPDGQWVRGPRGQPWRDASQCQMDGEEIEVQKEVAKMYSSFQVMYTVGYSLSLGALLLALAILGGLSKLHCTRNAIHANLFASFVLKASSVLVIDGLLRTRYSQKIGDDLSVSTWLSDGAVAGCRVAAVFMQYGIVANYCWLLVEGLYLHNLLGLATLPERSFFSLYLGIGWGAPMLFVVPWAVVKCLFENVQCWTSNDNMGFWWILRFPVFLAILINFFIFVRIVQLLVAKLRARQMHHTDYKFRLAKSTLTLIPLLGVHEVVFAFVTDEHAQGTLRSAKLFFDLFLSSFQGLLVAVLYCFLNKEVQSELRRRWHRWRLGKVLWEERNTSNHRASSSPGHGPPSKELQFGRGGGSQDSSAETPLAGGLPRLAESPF

Row | Binder | In vitro activity compared with native peptide (%) vs Glucagon (cAMP EC50)
1 | [Acetyl(2-(4-imidazolyl))]GQGTFTSDLSKQMDEERAREFIEWLLAQKPSSGAPPPSHG [triple agonist of SEQ ID NO: 17] | < 0.1%
2 | [Acetyl(2-(4-imidazolyl))]GQGTFTSDLSKQMDSERAREFIEWLKNTGPSSGAPPPSHG [triple agonist of SEQ ID NO: 18] | < 0.1%
3 | [Acetyl(2-(4-imidazolyl))]GQGTFTSDLSIQYDSEHQRDFIEWLKDTGPSSGAPPPSHG [triple agonist of SEQ ID NO: 19] | < 0.1%
4 | [Acetyl(2-(4-imidazolyl))]GQGTFTSDLSIQYEEEAQQDFVEWLKDTGPSSGAPPPSHG [triple agonist of SEQ ID NO: 20] | < 0.1%
5 | Y[Aib]QGTFTSDYSKYLDECRAKEFVQWLLDHHPSSGQPPPS (bridge 16-20) [triple agonist of SEQ ID NO: 21] | 267%
6 | Y[Aib]QGTFTSDYSKCLDEKRAKEFVQWLLDHHPSSGQPPPS (bridge 16-20) [triple agonist of SEQ ID NO: 22] | 140%
7 | Y[Aib]QGTFTSDYSKYLDECRAKEFVQWLLAQKGKKNDWKHNIT (bridge 16-20) [triple agonist of SEQ ID NO: 23] | 9.3%
8 | H[Aib]QGTFTSDVSSYLLGQAAKQFIAWLVKGGGPSSGAPPPSC [triple agonist of SEQ ID NO: 3] | < 0.1%
9 | Y[Aib]QGTFTSDYSKYLDECRAKEFVQWLKNGGPSSGAPPPS (bridge 16-20) [triple agonist of SEQ ID NO: 24] | 9.3%
10 | H[Aib]QGTFTSDCSKYLDERAAQDFVQWLLDGGPSSGAPPPS [triple agonist of SEQ ID NO: 25] | 0.1%
11 | H[Aib]QGTFTSDCSKYLDSRAAQDFVQWLLDGGPSSGAPPPS [triple agonist of SEQ ID NO: 26] | 0.2%
12 | H[Aib]QGTFTSDYSKYLDERACQDFVQWLLDQGGPSSGAPPPS [triple agonist of SEQ ID NO: 27] | 0.8%
13 | H[Aib]QGTFTSDYSKYLDEKRAQEFVCWLLAQKGKKNDWKHNIT [triple agonist of SEQ ID NO: 28] | 1.6%
14 | H[Aib]QGTFTSDYSKYLDEKAAKEFVQWLLNTC (bridge 16-20) [triple agonist of SEQ ID NO: 29] | 6%
15 | H[Aib]QGTFTSDYSKYLDEKAQKEFVQWLLDTC (bridge 16-20) [triple agonist of SEQ ID NO: 30] | 0.7%
16 | H[Aib]QGTFTSDYSKYLDEKACKEFVQWLLAQ (bridge 16-20) [triple agonist of SEQ ID NO: 31] | 2.2%
17 | H[Aib]QGTFTSDYSKYLDEKACKDFVQWLLDGGPSSGAPPPS (bridge 16-20) [triple agonist of SEQ ID NO: 32] | 1.7%
18 | H[Aib]QGTFTSDYSIAMDEIHQKDFVNWLLAQKC (bridge 16-20) [triple agonist of SEQ ID NO: 33] | < 0.1%

These binders were tested against T1, human GIP receptor (assay: cell-based or functional assay).

Row | Binder | In vitro activity compared with native peptide (%) vs GIP (cAMP EC50)
19 | [Acetyl(2-(4-imidazolyl))]GQGTFTSDLSKQMDEERAREFIEWLLAQKPSSGAPPPSHG [triple agonist of SEQ ID NO: 17] | < 0.1%
20 | [Acetyl(2-(4-imidazolyl))]GQGTFTSDLSKQMDSERAREFIEWLKNTGPSSGAPPPSHG [triple agonist of SEQ ID NO: 18] | < 0.1%
21 | [Acetyl(2-(4-imidazolyl))]GQGTFTSDLSIQYDSEHQRDFIEWLKDTGPSSGAPPPSHG [triple agonist of SEQ ID NO: 19] | < 0.1%
22 | [Acetyl(2-(4-imidazolyl))]GQGTFTSDLSIQYEEEAQQDFVEWLKDTGPSSGAPPPSHG [triple agonist of SEQ ID NO: 20] | < 0.1%
23 | Y[Aib]QGTFTSDYSKYLDECRAKEFVQWLLDHHPSSGQPPPS (bridge 16-20) [triple agonist of SEQ ID NO: 21] | 22.7%
24 | Y[Aib]QGTFTSDYSKCLDEKRAKEFVQWLLDHHPSSGQPPPS (bridge 16-20) [triple agonist of SEQ ID NO: 22] | 59.7%
25 | Y[Aib]QGTFTSDYSKYLDECRAKEFVQWLLAQKGKKNDWKHNIT (bridge 16-20) [triple agonist of SEQ ID NO: 23] | < 0.1%
26 | H[Aib]QGTFTSDVSSYLLGQAAKQFIAWLVKGGGPSSGAPPPSC [triple agonist of SEQ ID NO: 3] | < 0.1%
27 | Y[Aib]QGTFTSDYSKYLDECRAKEFVQWLKNGGPSSGAPPPS (bridge 16-20) [triple agonist of SEQ ID NO: 24] | < 0.1%
28 | H[Aib]QGTFTSDCSKYLDERAAQDFVQWLLDGGPSSGAPPPS [triple agonist of SEQ ID NO: 25] | < 0.1%
29 | H[Aib]QGTFTSDCSKYLDSRAAQDFVQWLLDGGPSSGAPPPS [triple agonist of SEQ ID NO: 26] | < 0.1%
30 | H[Aib]QGTFTSDYSKYLDERACQDFVQWLLDQGGPSSGAPPPS [triple agonist of SEQ ID NO: 27] | 0.9%
31 | H[Aib]QGTFTSDYSKYLDEKRAQEFVCWLLAQKGKKNDWKHNIT [triple agonist of SEQ ID NO: 28] | < 0.1%
32 | H[Aib]QGTFTSDYSKYLDEKAAKEFVQWLLNTC (bridge 16-20) [triple agonist of SEQ ID NO: 29] | < 0.1%
33 | H[Aib]QGTFTSDYSKYLDEKAQKEFVQWLLDTC (bridge 16-20) [triple agonist of SEQ ID NO: 30] | 0.8%
34 | H[Aib]QGTFTSDYSKYLDEKACKEFVQWLLAQ (bridge 16-20) [triple agonist of SEQ ID NO: 31] | 2.4%
35 | H[Aib]QGTFTSDYSKYLDEKACKDFVQWLLDGGPSSGAPPPS (bridge 16-20) [triple agonist of SEQ ID NO: 32] | 8.8%
36 | H[Aib]QGTFTSDYSIAMDEIHQKDFVNWLLAQKC (bridge 16-20) [triple agonist of SEQ ID NO: 33] | 10.4%

What follows are binders tested against human GLP-1 receptor (human, UniProt P43220 24-463) (assay: cell-based or functional assay).

Row | Binder | In vitro activity compared with native peptide (%) vs GLP-1 (cAMP EC50)
37 | [Acetyl(2-(4-imidazolyl))]GQGTFTSDLSKQMDEERAREFIEWLLAQKPSSGAPPPSHG [triple agonist of SEQ ID NO: 17] | 0.2%
38 | [Acetyl(2-(4-imidazolyl))]GQGTFTSDLSKQMDSERAREFIEWLKNTGPSSGAPPPSHG [triple agonist of SEQ ID NO: 18] | < 0.1%
39 | [Acetyl(2-(4-imidazolyl))]GQGTFTSDLSIQYDSEHQRDFIEWLKDTGPSSGAPPPSHG [triple agonist of SEQ ID NO: 19] | < 0.1%
40 | [Acetyl(2-(4-imidazolyl))]GQGTFTSDLSIQYEEEAQQDFVEWLKDTGPSSGAPPPSHG [triple agonist of SEQ ID NO: 20] | < 0.1%
41 | Y[Aib]QGTFTSDYSKYLDECRAKEFVQWLLDHHPSSGQPPPS (bridge 16-20) [triple agonist of SEQ ID NO: 21] | 17.8%
42 | Y[Aib]QGTFTSDYSKCLDEKRAKEFVQWLLDHHPSSGQPPPS (bridge 16-20) [triple agonist of SEQ ID NO: 22] | 20.1%
43 | Y[Aib]QGTFTSDYSKYLDECRAKEFVQWLLAQKGKKNDWKHNIT (bridge 16-20) [triple agonist of SEQ ID NO: 23] | 4.01%
44 | H[Aib]QGTFTSDVSSYLLGQAAKQFIAWLVKGGGPSSGAPPPSC [triple agonist of SEQ ID NO: 3] | 1.8%
45 | Y[Aib]QGTFTSDYSKYLDECRAKEFVQWLKNGGPSSGAPPPS (bridge 16-20) [triple agonist of SEQ ID NO: 24] | 41.2%
46 | H[Aib]QGTFTSDCSKYLDERAAQDFVQWLLDGGPSSGAPPPS [triple agonist of SEQ ID NO: 25] | 82.6%
47 | H[Aib]QGTFTSDCSKYLDSRAAQDFVQWLLDGGPSSGAPPPS [triple agonist of SEQ ID NO: 26] | 64.5%
48 | H[Aib]QGTFTSDYSKYLDERACQDFVQWLLDQGGPSSGAPPPS [triple agonist of SEQ ID NO: 27] | 83.1%
49 | H[Aib]QGTFTSDYSKYLDEKRAQEFVCWLLAQKGKKNDWKHNIT [triple agonist of SEQ ID NO: 28] | 17.2%
50 | H[Aib]QGTFTSDYSKYLDEKAAKEFVQWLLNTC (bridge 16-20) [triple agonist of SEQ ID NO: 29] | 38.5%
51 | H[Aib]QGTFTSDYSKYLDEKAQKEFVQWLLDTC (bridge 16-20) [triple agonist of SEQ ID NO: 30] | 142%
52 | H[Aib]QGTFTSDYSKYLDEKACKEFVQWLLAQ (bridge 16-20) [triple agonist of SEQ ID NO: 31] | 135%
53 | H[Aib]QGTFTSDYSKYLDEKACKDFVQWLLDGGPSSGAPPPS (bridge 16-20) [triple agonist of SEQ ID NO: 32] | 151%
54 | H[Aib]QGTFTSDYSIAMDEIHQKDFVNWLLAQKC (bridge 16-20) [triple agonist of SEQ ID NO: 33] | 24.5%
